Laboratory results reported in the supplement of paper PMC10065799, “High-throughput profiling of sequence recognition by tyrosine kinases and SH2 domains using bacterial peptide display” (eLife, 2023).

Columns and labels:
c-Src SH2 = assay: SH2 binding enrichment of the phosphorylated peptide, bacterial display (enrichment ratio); higher = better substrate or ligand; peptides without Tyr show the background
Grb2 SH2 = Grb2 SH2 (UniProt P62993); assay: as above
SHP2-C SH2 = assay: as above
Fer (mouse) = assay: phosphorylation enrichment, bacterial display (enrichment ratio); higher = better substrate or ligand; peptides without Tyr show the background
FGFR1 = FGFR1 (UniProt P11362); assay: as above
EPHB1 = EPHB1 (UniProt P54762); assay: as above
Fes = Fes (UniProt P07332); assay: as above
EPHB2 = EPHB2 (UniProt P29323); assay: as above
Jak2 = Jak2 (UniProt O60674); assay: as above
FGFR3 = FGFR3 (UniProt P22607); assay: as above
c-Abl (mouse) = assay: as above
AncSZ = assay: as above
c-Src = assay: as above
Hck = Hck (UniProt P08631); assay: as above
MERTK = MERTK (UniProt Q12866); assay: as above
Fyn = Fyn (UniProt P06241); assay: as above
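For SH2 binding enrichment of the phosphorylated peptide, bacterial display in this document: peptide library displayed on the E. coli surface as eCPX fusions, selected cells deep-sequenced, score is each peptide's frequency after selection divided by its frequency in the input.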
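For phosphorylation enrichment, bacterial display in this document: 11-residue human phosphosite peptides and single-mutation variants displayed on the E. coli surface, counted by deep sequencing, each peptide's frequency after selection divided by its frequency in the unselected input library; frequency after pTyr selection over input frequency; kinase dosed for 20-30% of maximal phosphorylation in three min.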

Chain of Jak2 (O60674 whole entry, looked up): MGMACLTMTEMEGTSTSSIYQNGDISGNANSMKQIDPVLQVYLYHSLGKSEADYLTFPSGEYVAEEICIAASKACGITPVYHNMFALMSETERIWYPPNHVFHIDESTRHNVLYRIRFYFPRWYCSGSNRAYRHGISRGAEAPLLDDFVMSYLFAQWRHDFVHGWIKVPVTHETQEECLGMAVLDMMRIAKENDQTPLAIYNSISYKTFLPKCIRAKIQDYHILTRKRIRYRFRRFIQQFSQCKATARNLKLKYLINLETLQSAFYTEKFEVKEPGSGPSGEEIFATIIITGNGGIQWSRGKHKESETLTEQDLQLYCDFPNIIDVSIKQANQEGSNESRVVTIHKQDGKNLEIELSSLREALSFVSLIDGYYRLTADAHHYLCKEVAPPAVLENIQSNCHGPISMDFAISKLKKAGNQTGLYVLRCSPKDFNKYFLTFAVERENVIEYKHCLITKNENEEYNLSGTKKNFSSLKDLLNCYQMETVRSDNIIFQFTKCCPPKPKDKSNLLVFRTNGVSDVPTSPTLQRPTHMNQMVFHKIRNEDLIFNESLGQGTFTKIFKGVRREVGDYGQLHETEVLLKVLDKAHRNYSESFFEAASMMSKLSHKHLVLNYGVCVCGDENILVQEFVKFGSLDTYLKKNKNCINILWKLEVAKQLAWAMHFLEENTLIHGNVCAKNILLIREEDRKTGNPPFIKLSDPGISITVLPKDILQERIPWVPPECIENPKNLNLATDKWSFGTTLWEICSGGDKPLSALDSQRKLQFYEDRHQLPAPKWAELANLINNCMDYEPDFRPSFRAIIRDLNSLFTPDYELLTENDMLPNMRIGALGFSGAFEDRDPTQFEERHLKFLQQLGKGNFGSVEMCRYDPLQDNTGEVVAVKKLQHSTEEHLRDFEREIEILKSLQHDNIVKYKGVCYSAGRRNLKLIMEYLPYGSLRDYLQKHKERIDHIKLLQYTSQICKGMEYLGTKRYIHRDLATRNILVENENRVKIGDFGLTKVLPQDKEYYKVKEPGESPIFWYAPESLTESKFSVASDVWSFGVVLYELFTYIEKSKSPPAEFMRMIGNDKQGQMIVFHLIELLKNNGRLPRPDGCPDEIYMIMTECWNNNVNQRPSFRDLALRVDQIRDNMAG
Chain of EPHB2 (P29323 whole entry, looked up): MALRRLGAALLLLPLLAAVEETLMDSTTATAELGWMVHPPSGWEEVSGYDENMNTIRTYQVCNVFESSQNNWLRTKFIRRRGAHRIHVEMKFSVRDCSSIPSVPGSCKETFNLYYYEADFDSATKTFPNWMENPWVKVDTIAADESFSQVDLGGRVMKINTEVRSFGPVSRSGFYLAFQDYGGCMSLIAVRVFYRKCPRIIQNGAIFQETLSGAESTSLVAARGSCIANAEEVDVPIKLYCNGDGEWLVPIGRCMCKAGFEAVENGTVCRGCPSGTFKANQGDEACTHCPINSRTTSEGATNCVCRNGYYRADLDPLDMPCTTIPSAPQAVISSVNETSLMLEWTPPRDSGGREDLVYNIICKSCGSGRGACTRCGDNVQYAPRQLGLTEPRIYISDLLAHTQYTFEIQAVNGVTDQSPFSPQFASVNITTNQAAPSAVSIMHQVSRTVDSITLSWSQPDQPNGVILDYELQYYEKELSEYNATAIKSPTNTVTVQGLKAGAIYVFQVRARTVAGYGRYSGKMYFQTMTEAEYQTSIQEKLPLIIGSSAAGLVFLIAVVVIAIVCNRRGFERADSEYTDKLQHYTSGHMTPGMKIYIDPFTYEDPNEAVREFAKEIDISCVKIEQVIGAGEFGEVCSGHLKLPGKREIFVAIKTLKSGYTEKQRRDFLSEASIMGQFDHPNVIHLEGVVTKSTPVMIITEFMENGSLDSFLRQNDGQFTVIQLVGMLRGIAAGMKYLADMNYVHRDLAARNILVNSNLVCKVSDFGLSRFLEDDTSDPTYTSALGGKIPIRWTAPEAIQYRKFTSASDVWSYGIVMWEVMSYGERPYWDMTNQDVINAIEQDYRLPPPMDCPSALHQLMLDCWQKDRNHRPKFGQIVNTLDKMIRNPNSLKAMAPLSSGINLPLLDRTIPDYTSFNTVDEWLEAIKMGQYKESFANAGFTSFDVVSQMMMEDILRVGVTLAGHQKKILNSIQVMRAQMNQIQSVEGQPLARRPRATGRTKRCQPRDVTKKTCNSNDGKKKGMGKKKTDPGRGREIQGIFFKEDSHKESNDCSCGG
Chain of MERTK (Q12866 whole entry, looked up): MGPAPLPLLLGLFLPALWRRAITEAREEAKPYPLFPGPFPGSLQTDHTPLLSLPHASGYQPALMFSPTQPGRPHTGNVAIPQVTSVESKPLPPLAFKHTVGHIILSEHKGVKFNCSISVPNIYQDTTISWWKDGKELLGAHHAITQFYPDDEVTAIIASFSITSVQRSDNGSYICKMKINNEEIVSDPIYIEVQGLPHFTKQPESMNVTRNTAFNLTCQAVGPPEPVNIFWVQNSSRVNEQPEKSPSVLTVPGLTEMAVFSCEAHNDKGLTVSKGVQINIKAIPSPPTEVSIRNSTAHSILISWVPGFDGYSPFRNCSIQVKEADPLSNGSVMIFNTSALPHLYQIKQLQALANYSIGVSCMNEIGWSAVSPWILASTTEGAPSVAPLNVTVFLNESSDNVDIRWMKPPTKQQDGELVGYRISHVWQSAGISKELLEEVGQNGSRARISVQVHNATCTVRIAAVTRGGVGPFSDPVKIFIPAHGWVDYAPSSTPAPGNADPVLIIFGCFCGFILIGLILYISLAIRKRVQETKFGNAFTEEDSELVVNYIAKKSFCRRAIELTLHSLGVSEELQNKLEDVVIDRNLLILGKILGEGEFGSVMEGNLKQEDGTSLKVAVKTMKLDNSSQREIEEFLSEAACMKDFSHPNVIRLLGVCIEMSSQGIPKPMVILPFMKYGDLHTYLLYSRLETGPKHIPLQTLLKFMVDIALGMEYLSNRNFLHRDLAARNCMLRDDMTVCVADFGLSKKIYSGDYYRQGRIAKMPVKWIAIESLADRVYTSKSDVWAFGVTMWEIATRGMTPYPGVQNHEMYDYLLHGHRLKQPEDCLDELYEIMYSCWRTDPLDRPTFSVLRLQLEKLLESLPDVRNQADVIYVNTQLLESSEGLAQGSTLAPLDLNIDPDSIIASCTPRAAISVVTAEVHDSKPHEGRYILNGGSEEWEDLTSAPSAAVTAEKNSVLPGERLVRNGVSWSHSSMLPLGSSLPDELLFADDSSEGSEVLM
Chain of FGFR1 (P11362 whole entry, looked up): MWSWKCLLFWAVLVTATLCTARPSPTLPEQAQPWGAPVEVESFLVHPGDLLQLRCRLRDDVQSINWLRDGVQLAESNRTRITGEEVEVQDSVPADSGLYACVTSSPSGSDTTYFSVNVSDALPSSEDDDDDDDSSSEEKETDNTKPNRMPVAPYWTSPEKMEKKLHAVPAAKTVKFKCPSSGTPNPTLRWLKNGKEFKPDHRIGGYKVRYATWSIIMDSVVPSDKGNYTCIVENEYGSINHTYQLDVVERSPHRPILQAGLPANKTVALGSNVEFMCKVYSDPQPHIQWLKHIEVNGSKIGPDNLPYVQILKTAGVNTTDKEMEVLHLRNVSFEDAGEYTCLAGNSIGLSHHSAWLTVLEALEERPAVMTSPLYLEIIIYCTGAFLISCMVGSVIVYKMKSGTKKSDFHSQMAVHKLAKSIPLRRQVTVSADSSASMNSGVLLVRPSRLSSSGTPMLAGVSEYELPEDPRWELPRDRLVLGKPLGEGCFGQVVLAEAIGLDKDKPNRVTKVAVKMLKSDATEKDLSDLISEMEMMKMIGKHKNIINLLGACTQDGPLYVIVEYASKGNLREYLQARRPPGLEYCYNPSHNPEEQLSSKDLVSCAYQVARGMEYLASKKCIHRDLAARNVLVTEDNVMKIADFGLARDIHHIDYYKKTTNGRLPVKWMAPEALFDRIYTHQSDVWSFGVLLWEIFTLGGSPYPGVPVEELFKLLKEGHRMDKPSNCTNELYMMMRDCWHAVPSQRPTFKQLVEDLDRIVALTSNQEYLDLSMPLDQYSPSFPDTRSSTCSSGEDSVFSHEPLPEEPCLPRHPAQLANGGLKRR
Chain of Grb2 SH2 (P62993 whole entry, looked up): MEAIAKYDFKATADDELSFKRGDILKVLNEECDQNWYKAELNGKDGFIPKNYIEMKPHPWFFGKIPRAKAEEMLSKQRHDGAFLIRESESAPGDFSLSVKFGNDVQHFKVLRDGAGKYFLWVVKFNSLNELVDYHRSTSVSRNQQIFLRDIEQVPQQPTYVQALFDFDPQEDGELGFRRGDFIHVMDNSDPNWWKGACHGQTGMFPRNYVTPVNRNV
Chain of Fyn (P06241 whole entry, looked up, the tested form may be a part): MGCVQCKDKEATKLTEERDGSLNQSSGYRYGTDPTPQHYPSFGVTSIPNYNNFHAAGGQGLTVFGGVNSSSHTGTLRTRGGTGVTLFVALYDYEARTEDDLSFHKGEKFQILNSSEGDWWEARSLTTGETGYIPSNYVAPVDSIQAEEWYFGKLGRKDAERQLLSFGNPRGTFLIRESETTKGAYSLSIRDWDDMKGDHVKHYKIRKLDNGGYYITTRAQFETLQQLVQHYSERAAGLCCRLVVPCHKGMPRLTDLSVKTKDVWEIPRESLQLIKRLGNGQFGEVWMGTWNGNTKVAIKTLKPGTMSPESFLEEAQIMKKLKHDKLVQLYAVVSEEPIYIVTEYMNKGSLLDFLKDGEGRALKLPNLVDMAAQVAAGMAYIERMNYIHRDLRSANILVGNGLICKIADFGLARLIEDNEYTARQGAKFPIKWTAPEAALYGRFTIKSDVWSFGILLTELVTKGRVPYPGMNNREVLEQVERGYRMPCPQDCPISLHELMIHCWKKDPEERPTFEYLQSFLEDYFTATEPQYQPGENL

## SLKEFYGEDAK [ALDH3A1_Y272]
c-Src SH2
  SH2 binding enrichment: 0.511
Grb2 SH2
  SH2 binding enrichment: 0.916
SHP2-C SH2
  SH2 binding enrichment: 0.599
Fer (mouse)
  phosphorylation enrichment: 0.588
FGFR1
  phosphorylation enrichment: 0.472
EPHB1
  phosphorylation enrichment: 0.434
Fes
  phosphorylation enrichment: 1.08
EPHB2
  phosphorylation enrichment: 0.472
Jak2
  phosphorylation enrichment: 0.903
FGFR3
  phosphorylation enrichment: 0.692
c-Abl (mouse)
  phosphorylation enrichment: 0.561
AncSZ
  phosphorylation enrichment: 0.929
c-Src
  phosphorylation enrichment: 0.44
Hck
  phosphorylation enrichment: 0.501
MERTK
  phosphorylation enrichment: 0.388
Fyn
  phosphorylation enrichment: 0.51

## DMLFQYLKQIE [RPAP3_Y569_YF]
c-Src SH2
  SH2 binding enrichment: 0.652
Grb2 SH2
  SH2 binding enrichment: 0.93
SHP2-C SH2
  SH2 binding enrichment: 0.851
Fer (mouse)
  phosphorylation enrichment: 0.462
FGFR1
  phosphorylation enrichment: 0.531
EPHB1
  phosphorylation enrichment: 0.684
Fes
  phosphorylation enrichment: 1.22
EPHB2
  phosphorylation enrichment: 0.588
Jak2
  phosphorylation enrichment: 0.976
FGFR3
  phosphorylation enrichment: 0.59
c-Abl (mouse)
  phosphorylation enrichment: 0.577
AncSZ
  phosphorylation enrichment: 1.48
c-Src
  phosphorylation enrichment: 0.468
Hck
  phosphorylation enrichment: 0.571
MERTK
  phosphorylation enrichment: 0.523
Fyn
  phosphorylation enrichment: 0.421

## AQRKLYRNVML [ZNF569_Y33]
c-Src SH2
  SH2 binding enrichment: 0.728
Grb2 SH2
  SH2 binding enrichment: 1.26
SHP2-C SH2
  SH2 binding enrichment: 0.82
Fer (mouse)
  phosphorylation enrichment: 0.373
FGFR1
  phosphorylation enrichment: 0.4
EPHB1
  phosphorylation enrichment: 0.412
Fes
  phosphorylation enrichment: 0.583
EPHB2
  phosphorylation enrichment: 0.287
Jak2
  phosphorylation enrichment: 0.629
FGFR3
  phosphorylation enrichment: 0.372
c-Abl (mouse)
  phosphorylation enrichment: 0.482
AncSZ
  phosphorylation enrichment: 0.566
c-Src
  phosphorylation enrichment: 0.535
Hck
  phosphorylation enrichment: 0.481
MERTK
  phosphorylation enrichment: 0.47
Fyn
  phosphorylation enrichment: 0.41

## LQLLGHRPVFS [CHST6_Y358_Y358H_YF]
c-Src SH2
  SH2 binding enrichment: 0.544
Grb2 SH2
  SH2 binding enrichment: 0.912
SHP2-C SH2
  SH2 binding enrichment: 0.923
Fer (mouse)
  phosphorylation enrichment: 0.817
FGFR1
  phosphorylation enrichment: 0.657
EPHB1
  phosphorylation enrichment: 0.847
Fes
  phosphorylation enrichment: 1.33
EPHB2
  phosphorylation enrichment: 0.783
Jak2
  phosphorylation enrichment: 1.03
FGFR3
  phosphorylation enrichment: 0.785
c-Abl (mouse)
  phosphorylation enrichment: 0.919
AncSZ
  phosphorylation enrichment: 0.901
c-Src
  phosphorylation enrichment: 0.579
Hck
  phosphorylation enrichment: 0.957
MERTK
  phosphorylation enrichment: 0.602
Fyn
  phosphorylation enrichment: 0.786

## PGQRVYVVAER [SHH_Y316]
c-Src SH2
  SH2 binding enrichment: 0.665
Grb2 SH2
  SH2 binding enrichment: 0.879
SHP2-C SH2
  SH2 binding enrichment: 0.586
Fer (mouse)
  phosphorylation enrichment: 0.494
FGFR1
  phosphorylation enrichment: 0.522
EPHB1
  phosphorylation enrichment: 0.63
Fes
  phosphorylation enrichment: 0.91
EPHB2
  phosphorylation enrichment: 0.537
Jak2
  phosphorylation enrichment: 0.556
FGFR3
  phosphorylation enrichment: 0.524
c-Abl (mouse)
  phosphorylation enrichment: 0.503
AncSZ
  phosphorylation enrichment: 0.883
c-Src
  phosphorylation enrichment: 0.464
Hck
  phosphorylation enrichment: 0.57
MERTK
  phosphorylation enrichment: 0.447
Fyn
  phosphorylation enrichment: 0.395

## AAGGRYFGLVG [HARS1_Y363_D364Y_YF]
c-Src SH2
  SH2 binding enrichment: 0.608
Grb2 SH2
  SH2 binding enrichment: 1.06
SHP2-C SH2
  SH2 binding enrichment: 0.828
Fer (mouse)
  phosphorylation enrichment: 0.389
FGFR1
  phosphorylation enrichment: 0.375
EPHB1
  phosphorylation enrichment: 0.312
Fes
  phosphorylation enrichment: 0.764
EPHB2
  phosphorylation enrichment: 0.377
Jak2
  phosphorylation enrichment: 0.575
FGFR3
  phosphorylation enrichment: 0.471
c-Abl (mouse)
  phosphorylation enrichment: 0.626
AncSZ
  phosphorylation enrichment: 0.516
c-Src
  phosphorylation enrichment: 0.461
Hck
  phosphorylation enrichment: 0.354
MERTK
  phosphorylation enrichment: 0.395
Fyn
  phosphorylation enrichment: 0.396

## FSCLPYGRLAY [SLC52A2_Y305]
c-Src SH2
  SH2 binding enrichment: 0.455
Grb2 SH2
  SH2 binding enrichment: 0.804
SHP2-C SH2
  SH2 binding enrichment: 0.465
Fer (mouse)
  phosphorylation enrichment: 0.619
FGFR1
  phosphorylation enrichment: 0.463
EPHB1
  phosphorylation enrichment: 0.559
Fes
  phosphorylation enrichment: 0.98
EPHB2
  phosphorylation enrichment: 0.513
Jak2
  phosphorylation enrichment: 0.782
FGFR3
  phosphorylation enrichment: 0.641
c-Abl (mouse)
  phosphorylation enrichment: 0.595
AncSZ
  phosphorylation enrichment: 1.01
c-Src
  phosphorylation enrichment: 1.84
Hck
  phosphorylation enrichment: 0.894
MERTK
  phosphorylation enrichment: 0.393
Fyn
  phosphorylation enrichment: 0.618

## QDDTVYMGKVI [DCTN1_Y1244_T1249I]
c-Src SH2
  SH2 binding enrichment: 0.389
Grb2 SH2
  SH2 binding enrichment: 1.05
SHP2-C SH2
  SH2 binding enrichment: 0.427
Fer (mouse)
  phosphorylation enrichment: 0.943
FGFR1
  phosphorylation enrichment: 0.913
EPHB1
  phosphorylation enrichment: 0.873
Fes
  phosphorylation enrichment: 1.72
EPHB2
  phosphorylation enrichment: 0.841
Jak2
  phosphorylation enrichment: 1.57
FGFR3
  phosphorylation enrichment: 0.938
c-Abl (mouse)
  phosphorylation enrichment: 2.06
AncSZ
  phosphorylation enrichment: 1.72
c-Src
  phosphorylation enrichment: 0.942
Hck
  phosphorylation enrichment: 1.33
MERTK
  phosphorylation enrichment: 0.765
Fyn
  phosphorylation enrichment: 1.45

## NVTGHYISPFH [PPA2_Y59]
c-Src SH2
  SH2 binding enrichment: 1.14
Grb2 SH2
  SH2 binding enrichment: 0.852
SHP2-C SH2
  SH2 binding enrichment: 1.11
Fer (mouse)
  phosphorylation enrichment: 0.325
FGFR1
  phosphorylation enrichment: 0.459
EPHB1
  phosphorylation enrichment: 0.423
Fes
  phosphorylation enrichment: 0.542
EPHB2
  phosphorylation enrichment: 0.493
Jak2
  phosphorylation enrichment: 0.492
FGFR3
  phosphorylation enrichment: 0.422
c-Abl (mouse)
  phosphorylation enrichment: 0.92
AncSZ
  phosphorylation enrichment: 0.552
c-Src
  phosphorylation enrichment: 0.362
Hck
  phosphorylation enrichment: 0.486
MERTK
  phosphorylation enrichment: 0.563
Fyn
  phosphorylation enrichment: 0.448

## KVQVSYKGDTK [HSPA1A_Y107_E110D]
c-Src SH2
  SH2 binding enrichment: 0.525
Grb2 SH2
  SH2 binding enrichment: 0.949
SHP2-C SH2
  SH2 binding enrichment: 0.676
Fer (mouse)
  phosphorylation enrichment: 0.328
FGFR1
  phosphorylation enrichment: 0.425
EPHB1
  phosphorylation enrichment: 0.299
Fes
  phosphorylation enrichment: 0.598
EPHB2
  phosphorylation enrichment: 0.36
Jak2
  phosphorylation enrichment: 0.5
FGFR3
  phosphorylation enrichment: 0.378
c-Abl (mouse)
  phosphorylation enrichment: 0.615
AncSZ
  phosphorylation enrichment: 0.491
c-Src
  phosphorylation enrichment: 0.473
Hck
  phosphorylation enrichment: 0.392
MERTK
  phosphorylation enrichment: 0.414
Fyn
  phosphorylation enrichment: 0.372

## LNEVGYDDIGG [VCP_Y203]
c-Src SH2
  SH2 binding enrichment: 12.2
Grb2 SH2
  SH2 binding enrichment: 0.974
SHP2-C SH2
  SH2 binding enrichment: 1.04
Fer (mouse)
  phosphorylation enrichment: 0.861
FGFR1
  phosphorylation enrichment: 1.07
EPHB1
  phosphorylation enrichment: 1.4
Fes
  phosphorylation enrichment: 2.47
EPHB2
  phosphorylation enrichment: 1.04
Jak2
  phosphorylation enrichment: 1.9
FGFR3
  phosphorylation enrichment: 1.72
c-Abl (mouse)
  phosphorylation enrichment: 1.09
AncSZ
  phosphorylation enrichment: 1.42
c-Src
  phosphorylation enrichment: 0.812
Hck
  phosphorylation enrichment: 1.36
MERTK
  phosphorylation enrichment: 0.827
Fyn
  phosphorylation enrichment: 1.15

## LTTEAYEWEPC [ELMOD3_Y61_R66C]
c-Src SH2
  SH2 binding enrichment: 1.37
Grb2 SH2
  SH2 binding enrichment: 1.02
SHP2-C SH2
  SH2 binding enrichment: 0.959
Fer (mouse)
  phosphorylation enrichment: 2.88
FGFR1
  phosphorylation enrichment: 2.04
EPHB1
  phosphorylation enrichment: 3.5
Fes
  phosphorylation enrichment: 6.22
EPHB2
  phosphorylation enrichment: 2.44
Jak2
  phosphorylation enrichment: 6.69
FGFR3
  phosphorylation enrichment: 3.7
c-Abl (mouse)
  phosphorylation enrichment: 4.16
AncSZ
  phosphorylation enrichment: 5.1
c-Src
  phosphorylation enrichment: 5.66
Hck
  phosphorylation enrichment: 1.88
MERTK
  phosphorylation enrichment: 1.57
Fyn
  phosphorylation enrichment: 1.58

## FRVAGYETQGG [TIA1_Y383_YF]
c-Src SH2
  SH2 binding enrichment: 0.466
Grb2 SH2
  SH2 binding enrichment: 0.822
SHP2-C SH2
  SH2 binding enrichment: 0.745
Fer (mouse)
  phosphorylation enrichment: 0.43
FGFR1
  phosphorylation enrichment: 0.449
EPHB1
  phosphorylation enrichment: 0.428
Fes
  phosphorylation enrichment: 0.897
EPHB2
  phosphorylation enrichment: 0.41
Jak2
  phosphorylation enrichment: 0.722
FGFR3
  phosphorylation enrichment: 0.553
c-Abl (mouse)
  phosphorylation enrichment: 0.64
AncSZ
  phosphorylation enrichment: 0.68
c-Src
  phosphorylation enrichment: 0.463
Hck
  phosphorylation enrichment: 0.46
MERTK
  phosphorylation enrichment: 0.437
Fyn
  phosphorylation enrichment: 0.409

## KMTGRYEMYAR [UPB1_Y362]
c-Src SH2
  SH2 binding enrichment: 1.12
Grb2 SH2
  SH2 binding enrichment: 1.13
SHP2-C SH2
  SH2 binding enrichment: 0.909
Fer (mouse)
  phosphorylation enrichment: 0.438
FGFR1
  phosphorylation enrichment: 0.523
EPHB1
  phosphorylation enrichment: 0.58
Fes
  phosphorylation enrichment: 0.789
EPHB2
  phosphorylation enrichment: 0.627
Jak2
  phosphorylation enrichment: 0.674
FGFR3
  phosphorylation enrichment: 0.487
c-Abl (mouse)
  phosphorylation enrichment: 0.54
AncSZ
  phosphorylation enrichment: 0.828
c-Src
  phosphorylation enrichment: 0.416
Hck
  phosphorylation enrichment: 0.549
MERTK
  phosphorylation enrichment: 0.428
Fyn
  phosphorylation enrichment: 0.476
